Test results: article PMC12493170, “Functional and structural characterization of AtAbf43C: an exo-1,5-α-L-arabinofuranosidase from Acetivibrio thermocellus DSM1313” (Biochemical Journal, 2025)

Key:
[1] = molecular target: T1, AtAbf43C (Acetivibrio thermocellus, UniProt A3DHB3, D302A); experiment: pNP release at […] nm, activity relative to wild type; assay type: biochemical; conditions: 5 mM substrate, pH 5.5 sodium acetate, 65 °C, 10 min; catalytic residue
T1 construct: gene Cthe_2138; residues 21-511 of 580, no signal peptide or dockerin I domain, C-terminal LEHHHHHH tag, pET28b(+), E. coli BL21(DE3) Rosetta2

[2] = molecular target: T2, AtAbf43C (Acetivibrio thermocellus, UniProt A3DHB3, D187A); experiment: as above; assay type: biochemical; conditions: 5 mM substrate, pH 5.5 sodium acetate, 65 °C, 10 min; catalytic residue
T2 construct: gene Cthe_2138; residues 21-511 of 580, no signal peptide or dockerin I domain, C-terminal LEHHHHHH tag, pET28b(+), E. coli BL21(DE3) Rosetta2

[3] = molecular target: T3, AtAbf43C (Acetivibrio thermocellus, UniProt A3DHB3, E363A); experiment: as above; assay type: biochemical; conditions: 5 mM substrate, pH 5.5 sodium acetate, 65 °C, 10 min; catalytic residue
T3 construct: gene Cthe_2138; residues 21-511 of 580, no signal peptide or dockerin I domain, C-terminal LEHHHHHH tag, pET28b(+), E. coli BL21(DE3) Rosetta2

[4] = substrate: O=[N+]([O-])c1ccc(O[C@@H]2O[C@@H](CO)[C@H](O)[C@H]2O)cc1; experiment: purified protein; assay type: biochemical, Acetivibrio thermocellus; conditions: pH 5.5, 100 mM sodium acetate, 65 °C, 2 min, 0.9-36 mM substrate, full saturation not achieved

T1 sequence (A3DHB3 entry or part of it D302A): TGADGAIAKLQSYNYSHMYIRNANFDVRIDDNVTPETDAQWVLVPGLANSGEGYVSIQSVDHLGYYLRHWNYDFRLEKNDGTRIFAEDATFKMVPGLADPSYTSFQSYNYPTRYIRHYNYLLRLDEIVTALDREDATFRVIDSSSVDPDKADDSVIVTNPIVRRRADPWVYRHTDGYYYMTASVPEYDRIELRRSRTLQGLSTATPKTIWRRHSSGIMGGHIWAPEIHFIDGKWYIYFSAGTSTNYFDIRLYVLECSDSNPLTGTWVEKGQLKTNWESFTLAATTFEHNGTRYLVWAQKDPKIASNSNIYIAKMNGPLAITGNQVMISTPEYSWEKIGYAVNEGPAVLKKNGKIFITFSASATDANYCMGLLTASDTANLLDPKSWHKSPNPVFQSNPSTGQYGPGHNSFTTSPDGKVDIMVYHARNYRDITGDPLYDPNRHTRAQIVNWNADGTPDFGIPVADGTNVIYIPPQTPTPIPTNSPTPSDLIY
T3 sequence (A3DHB3 entry or part of it E363A): as the sequence (A3DHB3 entry or part of it D302A) above, with A282D, E343A counted along it
T2 sequence (A3DHB3 entry or part of it D187A): as the sequence (A3DHB3 entry or part of it D302A) above, with D167A, A282D counted along it

Row | Molecule | % activity relative to wildtype [1] | % activity relative to wildtype [2] | % activity relative to wildtype [3] | Km [4] [mM] | kcat [4] [s⁻¹] | kcat/Km [4] [M⁻¹ s⁻¹]
1 | O=[N+]([O-])c1ccc(O[C@@H]2O[C@@H](CO)[C@H](O)[C@H]2O)cc1 [pNPAra, para-nitrophenol-α-L-arabinofuranoside] | activity on pNPAra was completely eliminated in any of the versions | activity on pNPAra was completely eliminated in any of the versions | activity on pNPAra was completely eliminated in any of the versions | – | – | –
2 | AtAbf43C_GH43 (Acetivibrio thermocellus ATCC 27405) (protein, isolated GH43 catalytic domain, residues 167-494, no CBM42, cloned in pET28b(+) and IMAC-purified, E. coli BL21(DE3) Rosetta2) DPDKADDSVIVTNPIVRRRADPWVYRHTDGYYYMTASVPEYDRIELRRSRTLQGLSTATPKTIWRRHSSGIMGGHIWAPEIHFIDGKWYIYFSAGTSTNYFDIRLYVLECSDSNPLTGTWVEKGQLKTNWESFTLDATTFEHNGTRYLVWAQKDPKIASNSNIYIAKMNGPLAITGNQVMISTPEYSWEKIGYAVNEGPAVLKKNGKIFITFSASATDANYCMGLLTASDTANLLDPKSWHKSPNPVFQSNPSTGQYGPGHNSFTTSPDGKVDIMVYHARNYRDITGDPLYDPNRHTRAQIVNWNADGTPDFGIPVADGTNVIYIPPQ | – | – | – | 59.6 ± 12.1 | 238 ± 33.4 | 4000 ± 1000
3 | AtAbf43C (Acetivibrio thermocellus ATCC 27405) (protein, residues 21-511 of 580, no signal peptide or dockerin I domain, C-terminal LEHHHHHH tag, pET28b(+), E. coli BL21(DE3) Rosetta2) TGADGAIAKLQSYNYSHMYIRNANFDVRIDDNVTPETDAQWVLVPGLANSGEGYVSIQSVDHLGYYLRHWNYDFRLEKNDGTRIFAEDATFKMVPGLADPSYTSFQSYNYPTRYIRHYNYLLRLDEIVTALDREDATFRVIDSSSVDPDKADDSVIVTNPIVRRRADPWVYRHTDGYYYMTASVPEYDRIELRRSRTLQGLSTATPKTIWRRHSSGIMGGHIWAPEIHFIDGKWYIYFSAGTSTNYFDIRLYVLECSDSNPLTGTWVEKGQLKTNWESFTLDATTFEHNGTRYLVWAQKDPKIASNSNIYIAKMNGPLAITGNQVMISTPEYSWEKIGYAVNEGPAVLKKNGKIFITFSASATDANYCMGLLTASDTANLLDPKSWHKSPNPVFQSNPSTGQYGPGHNSFTTSPDGKVDIMVYHARNYRDITGDPLYDPNRHTRAQIVNWNADGTPDFGIPVADGTNVIYIPPQTPTPIPTNSPTPSDLIY | – | – | – | 22.7 ± 4.1 | 269 ± 25.5 | 11900 ± 2400
